Measurements from patent US20210009686A1.

Columns and labels:
[1] = biological target: claudin 18.1 (CLDN18.1) (human) (UniProt P56856); assay: FACS, hybridoma supernatant on HEK293-CLDN18.1
[2] = biological target: claudin 18.1 (CLDN18.1) (human) (UniProt P56856); assay: in-cell ELISA, hybridoma supernatant on HEK293-CLDN18.1 cells

claudin 18.1 (CLDN18.1) (human), sequence (P56856 whole entry): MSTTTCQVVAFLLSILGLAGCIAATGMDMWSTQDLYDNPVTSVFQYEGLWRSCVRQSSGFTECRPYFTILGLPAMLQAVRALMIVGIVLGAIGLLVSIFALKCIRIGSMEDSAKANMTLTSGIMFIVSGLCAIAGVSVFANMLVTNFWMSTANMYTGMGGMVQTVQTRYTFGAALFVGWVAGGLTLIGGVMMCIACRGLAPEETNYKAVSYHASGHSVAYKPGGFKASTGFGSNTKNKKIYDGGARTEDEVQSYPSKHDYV

MFI [1]: 14300
OD450/µg IgG [2]: 0.62 OD450/µg IgG
B1: hybridoma clone 10-L9-A (antibody, V domains shown)
VH: EVQLVESGGGLVKPGGSRKLSCAASGFTFSDYGMHWVRQAPEKGLEWIAYINSGSSTIYYADTVKGRFTISRDNAKNTLFLQMTSLRSEDTAMFYCARFARGNVLDYWGQGTSVTVSS
VL: DIVMTQSPSSLTVTAGEKVTMSCRSSQSLLNSGNQRNYLTWYQQKPGHPPKLLIYWASTRESGVPDRFTGSGSGTDFTLTISGVQAEDLAVYYCQNGYSYPLTFGAGTKLEVK
